Experiment: soluble on expression in E. coli; label from the status in PepcDB or PDB records

Sequence | soluble on expression in E. coli
RYRAHCDAIALCAPMFGIIIRLPDWMVRHILDWAEGHQRIREEYAIGTGRWRALPFAVNVLTHSRQRYRRNLRFYADEPRLQVGGPTWHWVREGMLAGDEVLANVEKDTAPTLLLQAEEERVVDNLMHDRYCELRAAAGHPCEGGKPLVIEGAYHEILFEKDAMRSVALNAIVEFFNRHT | not soluble
MEDTIPAMPQWDKIIYNVLHGSTMKGITSLKKTSVWNEATPVCRESNREAIRRRFTRGLLGRLLQRTPLESCTPVFLPAAQSWPTLEMVPAGALLPGLSEGGEGAKNGSVTTGFFEFTESLPAVGLQRVLPVLPKSAWA | not soluble
MAHHHHHHMTVYHEQFALVPPQYPRRAVQEAENHRALAALYELVENAIATAENYVAYTEGRLVPLSSRGSELLAASKELRERYRHEAPCGWTEQKVMQHCEQEVTVEEMAELLLRPPLDVSGIRSILRTLQETRTQLPRGRFLLMRDNLSALKPHQPPDLVRDLSDVCGALYEIQYVDLMAELRAELSELDGERDKVQEKLKDAIHLYERALAKGDVVEVERAHRQLIAARYEFVNACAKLMHQILGEDMASQESGFAAEMEALRRDATDSISRFVEALHERRQAFRNDLHNCDKKRLEEDGNHQKCLEAYNAEERETAAQIGQIVEQKKKLVEELRQKARELRDITLKQKEMVEAQVRAKRAEEERVTAYNEFVNMEEQQKHRLLRCLAYFDGMEELTADLRSYVDEMVTRIPQQNLRQVIDQLNDIEAEAFMNAYSGFVSCCGELTVKKMHRLDTLERQARLLEHNRDSAMESLDPNMSNYRLELDDIIEQMKGVSGVINALNATQDAGEQLFQSVEKGVLAKYERSGTPFVHPLQEYGIKSVEERNRFVDRSMHYVENEERKVFEKRNVLNRMRQAVEEDEAATESAIRNLPAAPEY | soluble
MNNSRLFRLSRIVIALTAASGMMVNTANAKEEAKAATQYTQQVNQNYAKSLPFSDRQDFDDAQRGFIAPLLDEGILRDANGKVYYRADDYKFDINAAAPETVNPSLWRQSQINGISGLFKVTDKMYQVRGQDISNITFVEGEKGIIVIDPLVTPPAAKAALDLYFQHRPQKPIVAVIYTHSHTDHYGGVKGIISEADVKSGKVQVIAPAGFMDEAISENVLAGNIMSRRALYSYGLLLPHNAQGNVGNGLGVTLATGDPSIIAPTKTIVRTGEKMIIDGLEFDFLMTPGSEAPAEMHFYIPALKALCTAENATHTLHNFYTLRGAKTRDTSKWTEYLNETLDMWGNDAEVLFMPHTWPVWGNKHINDYIGKYRDTIKYIHDQTLHLANQGYTMNEIGDMIKLPPALANNWASRGYYGSVSHNARAVYNFYLGYYDGNPANLHPYGQVEMGKRYVQALGGSARVINLAQEANKQGDYRWSAELLKQVIAANPGDQVAKNLQANNFEQLGYQAESATWRGFYLTGAKELREGVHKFSHGTTGSPDTIRGMSVEMLFDFMAVRLDSAKAAGKNISLNFNMSNGDNLNLTLNDSVLNYRKTLQPQADASFYISREDLHAVLTGQAKMADLVKAKKAKIIGNGAKLEEIIACLDNFDLWVNIVTPN | soluble
MSLSNNKQSSTNDGKISIVTSTNVYADIAKNIVGKYGSAKAIIKNSATDPHDFEPTTQDAKELSSTNIIVANGLGYDSWMNKLASSVDKKPVLVGEELMKLKKGANPHIWYSLSMPTEYVDYLVKRLSKIDSKHKAYFEANGKKYLAKINQVKALAKNSKKTDKMVFVSEPVFDYALAEAGYKIGDKDFEKAVENNTDPSPKTINRMTNDIKNKKIAFFVNNTQSSSSTVKTFVKLAKQNNIPVLNVRETIPNHTTYLNWMKENYQNLANISKEGHHHHHH | not soluble
MGSDKIHHHHHHMFFEIALIGTTASGKTYIANTLAREFNAVVLSLDSLCVYKEINIASAKPSQDDLASIKYFGVNLLSVNEHFNVELFIREYQKAKEFALARNLPLIIVGGTGFYLKTMIDGLSEKTLESKSSLNNDEIYALLLNIDPNYKIEKNDTYRLKKWLGIYEQTREIPSEFLKRTQKTGVLKDIEIYELAWDKEILKKRIKTRTKEMLDNGLLDEAKILFSKFDHKLKALNSIGLKECKEYLDGEISFKELENLITIHTTQLAKRQRTFNKKFQSKALEFDKALATLRMKFSIEK | not soluble
MCLAIPSKVIAIKDNVVLLETLGVQREASLDLMGESVKVGDYVLLHIGYVMSKIDEKEALESIELYQEMIARMNETQ | not soluble
MGSSHHHHHHSSGLVPRGSHMRIGMVCPYSFDVPGGVQSHVLQLAEVLRDAGHEVSVLAPASPHVKLPDYVVSGGKAVPIPYNGSVARLRFGPATHRKVKKWIAEGDFDVLHIHEPNAPSLSMLALQAAEGPIVATFHTSTTKSLTLSVFQGILRPYHEKIIGRIAVSDLARRWQMEALGSDAVEIPNGVDVASFADAPLLDGYPREGRTVLFLGRYDEPRKGMAVLLAALPKLVARFPDVEILIVGRGDEDELREQAGDLAGHLRFLGQVDDATKASAMRSADVYCAPHLGGESFGIVLVEAMAAGTAVVASDLDAFRRVLADGDAGRLVPVDDADGMAAALIGILEDDQLRAGYVARASERVHRYDWSVVSAQIMRVYETVSGAGIKVQVSGAANRDETAGESV | soluble
MGSDKIHHHHHHKGHRVTGSDANVYPPMSTQLEDQGIELIQGFDPSQLGEAGHYPDLVVIGNAMSRGNPCVEAVLNIGIPYTSGPQFLADHILPERWVLAVSGTHGKTSTSSMLAWILDDCGYEPGFLIGGVPQNFGVSARLGKTAFFVVEADEYDSAFFDKRSKFVHYHPRTLVINNLEFDHADIFADLAAIQKQFNHLVRTVPGEGKIVWPADSHAVKQTIDMGCWSEQETYHLAESANGWYGKALSDDCHRFEVFFDGESQGILEWDLIGQHNIENAMMAIAAARHVGVKPSAAIEALAKFMPPKRRLELLGTVNGVSVYDDFAHHPTAIATTLKGMRAKVGQSKITVVLEPRSNTMKSGVHKDTLAFSMMQADEAFLYQADTIDWNMKEAMEAAVIPVTVLHQIDDVVAKVTATAKAGDTIVVMSNGGFGGLHKKLLAALELRSTVELV | not soluble
MSLIKIGVIADDFTGATDIASFLVENGLPTVQINGVPTGKMPEAIDALVISLKTRSCPVVEATQQSLAALSWLQQQGCKQIYFKYCSTFDSTAKGNIGPVTDALMDALDTPFTVFSPALPVNGRTVYQGYLFVMNQLLAESGMRHHPVNPMTDSYLPRLVEAQSTGRCGVVSAHVFEQGVDAVRQELARLQQEGYRYAVLDALTEHHLEIQGEALRDAPLVTGGSGLAIGLARQWAQENGNQARKAGRPLAGRGVVLSGSCSQMTNRQVAHYRQIAPAREVDVARCLSIETLAAYAHELAEWVLGQESVLAPLVFATASTDALAAIQQQYGAQKASQAVETLFSQLAARLAAEGVTRFIVAGGETSGVVTQSLGIKGFHIGPTISPACREGHHHHHH | not soluble
MSLTRFPVTALRSVDLGTPDLARSEAFYREVWGLERVGTAGGVVYLRATGRDHHVVALHRSARTELRAVTFRVADADDFEAISRNAIEQGATLIAAPAANMAPDGGTIMTLRSPEGGLLRFVHGDIRHDARPSRPELPERLAHVNLNSTDVDRTAAFYARALGFKLTDRSAAMAFVRCNSDHHAVVIAAAKVNGLNHVAFLMPTWEGVMRGSGRMIDAGYPIAWGVGRHGPGDNVFAYFIDPVGTVIEYTAEVLQVDDDYVVRGPEHWVWPPGRTDQWGIAPPKAEHVKAAQLAVGFAAEGHHHHHH | soluble
MAKRKICQAMAVVLALGMCTTGLTGCGNEKRADGKTEIEVVSYKPEAVKAFEKIEKQFNETHDDIHLTISSPNEAMTILKTRFIREDYPDIIAIGGDINYSNFLDADLFEDISDLDAVDNVKEAYLDMDKELEFIPKDGTYALPYAANAAGVLYNKDMFAENGWKVPTTWSEFTALCDEIKESGTLPLYLGFKDTWTCLAPWNALAVGLCDSDTCNQVNMGNTTFEEAYSPVADKIRTLLDYAEDNPYAYSYNDACTAFARGESAMYTIGSYAIPQIKSVNPDMNIGSFTFPANDNEADNVLNSGIDLQLSVMKACKNKEAAYEVLEYLYSDETIQTYLDDQGGIACKEGDFAIPDTLEDMQEYIKDNRMSDYQDHHYPSEMSVDAMIQTYLLDTGDNAKEKFLKKFDSDWERYNRDLIREVQDYQKEQEDAK | not soluble
MGSDKIHHHHHHMKVKDLLNITDEDELKKYRVFRALSRFNYFPNQKQAIGELPDCFTTSSLTPEVCLRLLSGGIDNKRKNTGFAPVEYKSTRYNNIPRVLSLVHPVAHAQLCKHIYENWQDIEYISANTISRVRPEFYEVDKRIVVMNYDDPIVKDRKFNDITFGKKYIVNADIASCFDSIYSHSIPWAIKGYEFAKNNRGENEWFNQFDKFLRTTKRCETNGMPIGPATSSICLEIILARVDSRLHDLGFEHERYVDDFCCYCSTKEQADEFIIKLSELLAEYRLSLNLRKTTIIELPIASTDDWIVELNSLCIDRYNADGDLVLIGAKEAINIINKAVFLSQSHKDGSVIKFAVGFLVKKLADTAYQDVFECLLSLSFHYPILIPYLSILLGRGNLEAQHYVDKFQMIIEENALHKRSDGMAWPLHIFREHNIEPTQEIVDRVLETKDCVAITILQDICPDNENIRQFVVDISNDLDIKKDEYWLLLYQSYLLGHINNPYRDRCFIVLKDYGVNFFKTDSRTKFEMRCDNVGAVWAFKELEEIKQPQAKAVNI | not soluble
MSQSNHPGGKDAGSIPRVLISADRSSSGKTTISMGLMAALVSRGYKVQPFKVALDYIDPSYHTEITGRFCRNLDGYLMDEHGILDVYTHACETGGGADIAIIEGVRGLFEGFESLSDVGSTAQIAKILKCPVVFVINARSITRSAAALIGGYKNFDPDVEIAGVILNNIGGRRHAQKAKEAIEHYTGVPVLGIIPRDPSMQISMRHLGLMPALEGRRRFGDGGFENRLHGIEEIINKGIDVDRFLGIAESAKPLTALENSIFSPAVNENSQKPKIGVALDEAFNFYYRDNIDLLEIAGAEIVYFSPVNDPGLPEVDGLYIGGGYPELFAAELEANETMRKSIKEASAAGMPIYAECGGLMYLTEKISTGVPGKGTYHDASMPESTYSMVGALPGHTIMGQTRVVSYNIGTLARDCPIGKKGNSFKGHEFHHSEILEIPDDAEFAIALTRGTGIRGDRDGLIVNNTIGSYAHLHGVAYRELAGSLVEAARKFRDSRVSSLEHHHHHH | soluble
MGSDKIHHHHHHMENLGDRLEVVAELSLAPGNITLTPDGRLFLSLHQFYQPEMQVAELTQDGLIPFPPQSGNAIITFDTVLGIKSDGNGIVWMLDNGNQSKSVPKLVAWDTLNNQLSRVIYLPPPITLSNSFVNDLAVDLIHNFVYISDPAPDDKAALIRVDLQTGLAARVLQGYPGIAPEDIDLVIDGVPVQIGQPDGTVIRPHLGVNGIVLDAENEWLYLSPMHSTSMYRIKSADLSNLQLTDAELGSKIERYSEKPICDGISIDKDHNIYVGDLAHSAIGVITSADRAYKLLVTDEKLSWTDSFNFGSDGYLYFDCNQLHHSAPLNAGENISAPPYYIFRLKPLAAGIVGR | not soluble
MSLSKTLSMLALLPFAAQVFAAPAEFWYSHGGATGSAIADLCRSFNAQREDGDRLHCIRQGSYEQTLQKTVAAYRAGIGPALVEIYDVATPDMLLGGATLPVEAIMAGHQRAYSDDTFLPALRRYYSDDHGALAAQPFAASTAVLYTHRNALAAAGISEPPATWEAFATALRALKKNGHACPVVSEFSPWIWLEQTSAAQGTEVAVRAAGTERYQFDKGAHLRLMNDLAQWTAEGLVVHEDSTRSGQQALAFATDDCAMLIDSTGAWNIVHSTLKSDIDVTALPIYANTQRRTNAPGGSSLWVMRGHAARDYRLVSEFLAFVLQPDNQLVFSARTGYLPVTQAAAARLQSAGREPSAVMVGLAALHDIDGQPSKPLRCGFITLMRLVWSQEMENALAGRQSVEHALRQTTLRANELLSLFQQMHQAQASNESDGATEGHHHHHH | soluble
SLGQADTERLLSDRKLVLLVDLDQTLIHTTNDNVPNNLKDVYHFQLYGPNSPWYHTRLRPGALEFLAKMHPYYELHICTFGARNYAHMIAQFLDKDGNFFSHRILSRDECFNATSKTDNLKALFPCGDSMVCIIDDREDVWNMASNLIQVKPYHFFRHTGDINAPPGMSKNELDGKGVDFKELMSQSQK | soluble

Source: the DeepSol protein solubility set
